Consider one molecule from article PMC9477392 (2022).

For this assay, the target named is T1, Atox1 (Homo sapiens, UniProt O00244).
T1 chain: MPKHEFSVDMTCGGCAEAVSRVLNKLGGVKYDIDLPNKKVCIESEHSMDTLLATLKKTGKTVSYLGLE
Briefly: SPR. In general terms: SPR reads the build-up and loss of mass on a sensor chip optically.

B1: Memo1 (protein)
chain: MSNRVVCREASHAGSWYTASGPQLNAQLEGWLSQVQSTKRPARAIIAPHAGYTYCGSCAAHAYKQVDPSITRRIFILGPSHHVPLSRCALSSVDIYRTPLYDLRIDQKIYGELWKTGMFERMSLQTDEDEHSIEMHLPYTAKAMESHKDEFTIIPVLVGALSESKEQEFGKLFSKYLADPSNLFVVSSDFCHWGQRFRYSYYDESQGEIYRSIEHLDKMGMSIIEQLDPVSFSNYLKKYHNTICGRHPIGVLLNAITELQKNGMNMSFSFLNYAQSSQCRNWQDSSVSYAAGALTVH
modifications: Cu(I)-loaded Atox1
The molecule B1 came in with a Kd of 0.21 µM.

The Kd is a measure of binding affinity in units of concentration. A high value points to lower affinity.
